The target of experiment [1] is T1, human LAG-3 on 293 cells overexpressing human LAG-3 (293-LAG-3) (human, UniProt P18627 23-525).
T1 construct: whole, on cells; also called LAG-3 on the cell surface
T1 sequence (looked up): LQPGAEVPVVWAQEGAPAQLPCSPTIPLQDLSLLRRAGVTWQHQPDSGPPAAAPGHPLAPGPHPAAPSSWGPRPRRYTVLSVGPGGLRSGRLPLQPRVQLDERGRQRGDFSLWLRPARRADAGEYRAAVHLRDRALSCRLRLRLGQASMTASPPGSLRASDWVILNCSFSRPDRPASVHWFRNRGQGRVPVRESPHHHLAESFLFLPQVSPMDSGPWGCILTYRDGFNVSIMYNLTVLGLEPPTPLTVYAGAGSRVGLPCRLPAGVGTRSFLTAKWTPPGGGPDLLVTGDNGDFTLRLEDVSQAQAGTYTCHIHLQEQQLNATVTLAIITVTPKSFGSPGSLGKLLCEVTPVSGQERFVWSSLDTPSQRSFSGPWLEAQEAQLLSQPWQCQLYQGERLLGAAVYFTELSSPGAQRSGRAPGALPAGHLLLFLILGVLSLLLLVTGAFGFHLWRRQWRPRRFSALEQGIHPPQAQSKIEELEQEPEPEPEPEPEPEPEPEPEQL
Kind of experiment: FACS on 293-LAG-3 cells, PE anti-human Fc detection. The procedure:
(§1) 2) Detection: The cell suspension was centrifuged at 400 g on a centrifuge for 5 min to remove the cell culture medium. The serial dilutions of the bispecific antibody IGN-LP disclosed herein and anti-humanized Nb-Fc and anti-LAG-3 antibody ADI31853 as controls were added to the U-shaped plate at 100 μL each, and then the cells were resuspended and put onto the ice to stand for 30 min. The cell suspension was centrifuged at 400 g for 5 min to remove the supernatant, and the cells were washed with PBS to remove the unbound antibodies. The resulting cell suspension was centrifuged at 400 g for 5 min to remove PBS. 100 μL of the solution of PE-conjugated anti-human Fc antibody (Jackson Immuno Research) diluted at a ratio of 1:200 was added to each well, and the cells were incubated in the dark on the ice for 30 min. Then the cell suspension was centrifuged at 400 g for 5 min to remove the supernatant. The cells were washed with PBS once to remove the unbound PE-conjugated anti-human Fc antibody. Then the cells were resuspended with 100 μL of PBS, and the binding of the antibody to cells was assayed by FACS.

The target of experiment [2] is T2, human LAG-3-his (human, UniProt P18627 23-450).
T2 construct: Bought reagent; also called LAG-3 protein; not shown: His tag
T2 sequence (looked up): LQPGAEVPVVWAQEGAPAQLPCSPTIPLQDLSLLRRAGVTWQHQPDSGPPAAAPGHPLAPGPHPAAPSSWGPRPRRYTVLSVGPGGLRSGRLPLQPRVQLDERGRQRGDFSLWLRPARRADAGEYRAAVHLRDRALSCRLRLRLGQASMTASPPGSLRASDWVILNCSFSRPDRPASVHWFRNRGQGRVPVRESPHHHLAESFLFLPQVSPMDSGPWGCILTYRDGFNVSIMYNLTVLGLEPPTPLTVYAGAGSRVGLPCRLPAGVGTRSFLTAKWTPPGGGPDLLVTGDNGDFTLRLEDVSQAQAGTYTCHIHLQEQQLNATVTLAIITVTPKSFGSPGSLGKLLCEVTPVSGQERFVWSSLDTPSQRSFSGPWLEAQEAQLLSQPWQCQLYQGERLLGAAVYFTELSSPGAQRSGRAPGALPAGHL
Kind of experiment: ForteBio Octet BLI; antibody on AHQ tip, human LAG-3-His 100 nM in solution. The procedure: (§2) The equilibrium dissociation constant (KD) for the binding of the prepared exemplary anti-LAG-3/PD-L1 bispecific antibody IGN-LP disclosed herein to LAG-3 and PD-L1 was determined by a kinetic binding assay using the Octet system manufactured by ForteBio. A ForteBio affinity assay was performed according to the method reported in the literature (Estep, P, et al., High throughput solution Based measurement of antibody-antigen affinity and epitope binning MAbs, 2013, 5(2): p. 270-278). Briefly:
(§3) The anti-human IgG Fc biosensor AHQ was immersed in each well containing the antibody solution at room temperature for 600 s to load the samples. The sensor was then washed in SD buffer until it returned to the baseline, and then immersed in a well containing 100 μL of the antigen solution to monitor the binding of the antibody to the antigen. The sensor was then transferred to a well containing 100 uL of the SD buffer to monitor the antibody dissociation (the operation procedures were set as: Baseline, Loading ˜1 nm, Baseline, Association and Dissociation, each running for a time depending on the binding and dissociation rates of the samples). The rotation speed was 400 rpm and the temperature was 30° C. […]

For experiment [3], the target named is T2, human LAG-3-his. Kind of experiment: ForteBio Octet BLI; antibody on AHQ tip, human LAG-3-His 100 nM in solution, monovalent. On the procedure: as §2, §3
Experiment [4] concerns the target T3, human PD-L1 on CHOS cells overexpressing PD-L1 (CHOS-PD-L1) (human, UniProt Q9NZQ7 19-290).
T3 construct: whole, on cells; also called CHO-PD-L1; PD-L1 on the cell surface
The experiment in a line: FACS on CHOS-PD-L1 cells, PE anti-human Fc detection. On the procedure:
as §1

The target in experiment [5] is T4, human PD-L1-his (human, UniProt Q9NZQ7 19-238).
T4 construct: Bought reagent; also called PD-L1 protein; not shown: His tag
T4 sequence (Q9NZQ7 19-238 limits assumed): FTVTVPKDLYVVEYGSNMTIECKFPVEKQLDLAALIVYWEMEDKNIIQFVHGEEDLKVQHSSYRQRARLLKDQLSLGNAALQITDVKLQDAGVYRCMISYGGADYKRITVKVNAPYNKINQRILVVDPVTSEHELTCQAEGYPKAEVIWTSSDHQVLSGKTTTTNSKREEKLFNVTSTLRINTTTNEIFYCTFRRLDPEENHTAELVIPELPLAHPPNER
The experiment in a line: ForteBio Octet BLI; antibody on AHQ tip, human PD-L1-His 100 nM in solution. On the procedure: as §2, §3

The target in experiment [6] is T4, human PD-L1-his. The experiment in a line: ForteBio Octet BLI; antibody on AHQ tip, human PD-L1-His 100 nM in solution, monovalent. On the procedure: as §2, §3

T3 sequence (Q9NZQ7 19-290): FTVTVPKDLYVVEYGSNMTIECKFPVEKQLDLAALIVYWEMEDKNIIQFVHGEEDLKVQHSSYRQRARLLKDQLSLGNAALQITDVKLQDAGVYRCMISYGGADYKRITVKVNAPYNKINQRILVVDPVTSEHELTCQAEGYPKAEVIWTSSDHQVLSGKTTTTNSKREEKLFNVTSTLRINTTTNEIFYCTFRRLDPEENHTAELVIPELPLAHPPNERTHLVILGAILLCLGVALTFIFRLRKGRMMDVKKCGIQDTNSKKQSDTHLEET

B1: anti-LAG-3 antibody ADI-31853 (antibody, human IgG1, kappa, L234A L235A, V domains shown)
VH: QLQLQESGPGLVKPSETLSLTCTVSGGSIYSESYYWGWIRQPPGKGLEWIGSIVYSGYTYYNPSLKSRVTISVDTSKNQFSLKLSSVTAADTAVYYCARVRTWDAAFDIWGQGTMVTVSS
VL: DIQMTQSPSSLSASVGDRVTITCQASQDISNYLNWYQQKPGKAPKLLIYDASNLETGVPSRFSGSGSGTDFTFTISSLQPEDIATYYCQQVLELPPWTFGGGTKVEIKR
notes: also called parental anti-LAG-3 antibody
Molecule B1 returned an EC50 in experiment [1] of 0.504 nM. Moreover, in the experiment with human LAG-3-his [2], the koff was 0.0002 s⁻¹ and the kon was found to be 128000 M⁻¹ s⁻¹. In the experiment with human LAG-3-his [3], this molecule yielded a Kd of 1.56 nM.

B2: anti-PD-L1 humanized Nb-Fc antibody (Fc fusion)
chain: QVQLQESGGGLVQPGGSLRLSCAASAYTISRNSMGWFRQAPGKGLEGVAAIESDGSTSYSDSVKGRFTISLDNSKNTLYLEMNSLRAEDTAVYYCAAPKVGLGPRTALGHLAFMTLPALNYWGQGTLVTVSS
notes: The VHH is inferred from the words 'parent antibody' / 'parental anti-PD-L1 antibody'; also called anti-humanized Nb-Fc; parental anti-PD-L1 antibody; not shown: the antibody was obtained according to ZL201710657665.3
Turning to B2, the EC50 in experiment [4] was determined as 1.2 nM. In the experiment with human PD-L1-his [5], this molecule showed a koff of 0.00356 s⁻¹ and a kon of 310000 M⁻¹ s⁻¹. In the experiment with human PD-L1-his [6], the equilibrium dissociation constant (Kd) is 11.5 nM.

(Values after patent US20220112284A1 (Innovent, published 2022).)
